Holding throughout (experiment): purified protein
Substrate in data set [1]: C=C(C)CCO[P@@](=O)(O)OP(=O)(O)O
The note with it: pH 8.0, 22 °C, 10 mM Mg acetate, 40 mM NaCl, 0.01% Tween 20.

Substrate in data set [2]: CC(C)=CCC/C(C)=C/CC/C(C)=C/CC/C(C)=C/COP(=O)(O)OP(=O)(O)O
The note with it: pH 8.0, 22 °C, 10 mM Mg acetate, 40 mM NaCl, 0.01% Tween 20.

Substrate in data set [3]: CC(C)=CCC/C(C)=C/CC/C(C)=C/CO[P@@](=O)(O)OP(=O)(O)O
The note with it: pH 8.0, 22 °C, 10 mM Mg acetate, 40 mM NaCl, 0.01% Tween 20.

Substrate in data set [4]: CC(C)=CCC/C(C)=C/COP(=O)(O)OP(=O)(O)O
The conditions noted are these: pH 8.0, 22 °C, 10 mM Mg acetate, 40 mM NaCl, 0.01% Tween 20.

Substrate in data set [5]: CC(C)=CCOP(=O)(O)OP(=O)(O)O
The note with it: pH 8.0, 22 °C, 10 mM Mg acetate, 40 mM NaCl, 0.01% Tween 20.

Substrate in data set [6]: C[C@@](O)(CCOP(=O)(O)OP(=O)(O)O)CC(=O)O
The conditions noted are these: pH 8.0, 22 °C, 10 mM Mg acetate, 40 mM NaCl, 0.01% Tween 20.

Substrate in data set [7]: Nc1nc2c(ncn2[C@H]2C[C@H](O)[C@@H](COP(=O)(O)OP(=O)(O)OP(=O)(O)O)O2)c(=O)[nH]1
The note with it: pH 8.0, 22 °C, 10 mM Mg acetate, 40 mM NaCl.

B1: NUDT18 (Homo sapiens) (protein)
chain: MASEGLAGALASVLAGQGSSVHSCDSAPAGEPPAPVRLRKNVCYVVLAVFLSEQDEVLLIQEAKRECRGSWYLPAGRMEPGETIVEALQREVKEEAGLHCEPETLLSVEERGPSWVRFVFLARPTGGILKTSKEADAESLQAAWYPRTSLPTPLRAHDILHLVELAAQYRQQARHPLILPQELPCDLVCQRLVATFTSAQTVWVLVGTVGMPHLPVTACGLDPMEQRGGMKMAVLRLLQECLTLHHLVVEIKGLLGLQHLGRDHSDGICLNVLVTVAFRSPGIQDEPPKVRGENFSWWKVMEEDLQSQLLQRLQGSSVVPVNR
A word on the Km: it is the substrate concentration at which the rate is half of its maximum. Usually kcat stands for the maximal rate divided by the concentration of active sites. Consider B1, for which the Km in the data set “purified protein [1]” is 12.4 ± 2.6 µM; in “purified protein [2]” it was 17.9 ± 3.4 µM; in the data set “purified protein [3]” it was 18.8 ± 3.9 µM; in “purified protein [4]” it was 3.7 ± 0.4 µM; in “purified protein [5]” it was 9.8 ± 2.9 µM; in “purified protein [6]” it was 26.8 ± 2.8 µM. In addition, the kcat in “purified protein [1]” was 0.87 s⁻¹; in the data set “purified protein [2]”, 0.15 s⁻¹; in “purified protein [3]” it was 0.52 s⁻¹; in the data set “purified protein [4]”, 0.78 s⁻¹; in “purified protein [5]”, 0.94 s⁻¹; in “purified protein [6]”, 0.55 s⁻¹.

B2: NUDT15 (Homo sapiens) (protein)
chain: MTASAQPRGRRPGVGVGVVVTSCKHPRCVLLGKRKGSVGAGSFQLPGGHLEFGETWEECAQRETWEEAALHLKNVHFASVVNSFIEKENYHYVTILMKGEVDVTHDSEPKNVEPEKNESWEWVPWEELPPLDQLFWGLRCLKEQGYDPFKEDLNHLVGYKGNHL
B2: the Km in the data set “purified protein [1]” was determined as 63.6 ± 19.4 µM; in “purified protein [4]”, 18.7 ± 0.2 µM; in “purified protein [5]”, 159.3 ± 40.5 µM; in the data set “purified protein [7]”, 21 µM. The kcat in the data set “purified protein [1]” came to 0.49 s⁻¹; in the data set “purified protein [4]”, 0.72 s⁻¹; in “purified protein [5]”, 0.94 s⁻¹; in the data set “purified protein [7]”, 38.2 min⁻¹.

The values above are taken from doi:10.1101/2023.11.29.569174v1.
